Assays:
h-MMP-9/h-TIMP-1 complex = h-MMP-9/h-TIMP-1 complex (Homo sapiens, UniProt P14780); experiment: Biacore 3000 binding to antibody-coated CM5 chip; details: 25° C.
Method: The non competitive inhibition model implies that the ternary complex enzyme-substrate-inhibitor can form. It is however possible that this complex cannot form with bigger substrates, in which case the antibody would behave as a competitive inhibitor. In order to address this issue, the ability of M0237-D02 antibody to bind to the h-MMP-9 when the enzyme is complexed to its natural inhibitor h-TIMP-1 was determined. The reasoning is that if the antibody cannot bind to the h-MMP-9/h-TIMP-1 complex, it would probably behave as a competitive inhibitor of this enzyme in the presence of bigger substrates.
Experiments were performed at 25° C. with the help of a Biacore 3000 instrument. The MMP-9 binding protein (M0166F10) and the M0237-D02 antibody were coated to a CM5 chip either via standard amine coupling or using an anti-Fc antibody surface. Then either the active, human MMP-9 catalytic domain (BIOMOL, SE-244), the human pro-MMP-9 (R&D, 911-MP), the human TIMP-1 (R&D, 970-TM) or a h-MMP-9/h-TIMP-1 complex were flowed over the antibody surfaces, and binding was recorded.

[1] = target: T1, Human MMP-9 catalytic domain (Homo sapiens, UniProt P14780); experiment: Inhibition progress curves and kinetic analysis (kobs, kon, koff); format: biochemical; details: 25° C.; for kobs: substrate 9 μM
T1 construct: Human MMP-9 catalytic domain (BIOMOL, SE-244); purchased BIOMOL SE-244
Method: The kinetics of the interaction between M0237-D02 and the human MMP-9 were determined. The rates were determined using the following equation: […]
The second order rate constant for the association of the enzyme E and the inhibitor I (kon) and the first order rate constant for the dissociation of the complex EI (koff) can be calculated from inhibition progress curves obtained at different inhibitor concentrations.
Materials: • Substrate: Mca-KPLGL-Dap(Dnp)-AR-NH2 (M-2350) from BACHEM (521575). A 10 mM stock solution was prepared in DMSO. • Human MMP-9 catalytic domain (BIOMOL, SE-244). • M0237-D02 hIgG1: 2517-068. • All measurements were performed at 25° C. in TCNB: 50 mM Tris/HCl, 10 mM CaCl2, 150 mM NaC10.05% Brij 35, pH 7.5. • 96-well black plates from Perkin Elmer (6005270) • Spectramax M2e to measure fluorescence emission of the substrate upon hydrolysis (λexc=328 nm and λem=393 nm)
The enzyme (at a final concentration ranging from 1.5 to 12.3 nM), the substrate (9 μM final) and the M0237-D02 antibody were mixed, and the fluorescence was immediately recorded in order to follow the hydrolysis of the substrate. The observed inhibition rate (kobs) was obtained by analyzing the progress curves with a single exponential. The value for kon and koff were calculated from the plot of the kobs vs. the antibody concentration using the following equation: […]

Colo205 tumor sections = experiment: Film in situ zymography (FIZ) on frozen tumor sections; format: cell-based, human; details: 500 nM; 37° C. overnight
Method: (§1) PBS-control treated tumors were screened with M0237-D02 for gelatinase expression using the FIZ approach. The tumors tested were Colo205 and MCF-7. Briefly, frozen slides of tumpor sections were dried at room temperature and 200 μl of in situ Zymo buffer (TCNB)+20 μg/ml of gelatin quenched substrate from molecular probes was added. The slides were incubate at 37° C. overnight in the presence of M0237-D02 at 500 nM or GM6001 used as a positive control at 100 μM. The substrate was washed in MilliQ (3 times) and the mounted slides were treated with anti-Fade+Dapi mounting medium.

MCF-7 tumor sections = experiment: as above; format: cell-based, human; details: 500 nM; 37° C. overnight
Method: as §1

[2] = system: carrageenan-stimulated mouse air pouch; experiment: Carrageenan-stimulated mouse air pouch, inflammatory cell infiltration; format: in vivo; details: FIG. 2
Excerpt: The purpose of the following experiments were to determine the effect of 539A-M0237-D02 on inflammation and specifically on inflammatory cell infiltration into the carrageenan-stimulated mouse air pouch and on the arthritic index in collagen-induced arthritis (CIA) mice.
For the carrageenan-stimulated mouse air pouch model, subcutaneous injection of air into the hind flank or back of mice produces an air pouch in a week, the interior surface of which contains both fibroblast-like and macrophage-like cells. Inflammatory stimulation of the pouch results in leukocyte recruitment to the pouch and release of mediators (cytokines) into the exudate. Preventing inflammatory cell infiltration into the air pouch may translate into preventing inflammation of the synovium in rheumatoid arthritis.
The effect of 539A-M0237-D02 on inflammatory cell infiltration was compared to inflammatory cell infiltration indomethacin and a control (PBS). In addition, inflammatory cell recruitment was compared to an unstimulated mouse.

[3] = from plot of kobs vs. antibody concentration

T1 sequence (P14780 107-444 limits assumed): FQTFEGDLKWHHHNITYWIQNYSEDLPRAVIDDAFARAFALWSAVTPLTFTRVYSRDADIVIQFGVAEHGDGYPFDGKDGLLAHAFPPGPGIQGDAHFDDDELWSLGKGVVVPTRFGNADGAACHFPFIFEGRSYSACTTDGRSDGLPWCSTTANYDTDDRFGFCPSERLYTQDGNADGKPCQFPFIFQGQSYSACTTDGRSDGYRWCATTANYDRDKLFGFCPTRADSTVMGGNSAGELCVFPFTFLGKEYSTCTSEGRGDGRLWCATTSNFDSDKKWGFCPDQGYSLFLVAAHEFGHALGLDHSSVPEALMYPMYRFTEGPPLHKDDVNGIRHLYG
Chain of h-MMP-9/h-TIMP-1 complex (P14780 107-444 limits assumed): as above
Chain of h-MMP-9/h-TIMP-1 complex (P01033 24-207 partner): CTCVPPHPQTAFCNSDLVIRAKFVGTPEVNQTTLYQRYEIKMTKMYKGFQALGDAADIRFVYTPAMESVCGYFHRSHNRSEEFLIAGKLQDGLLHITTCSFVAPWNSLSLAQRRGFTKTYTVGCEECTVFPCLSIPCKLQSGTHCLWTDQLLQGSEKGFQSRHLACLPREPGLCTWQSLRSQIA

B1: M0237-D02: MMP-9/-2 dual reactive antibody inhibitor (parental); sFab and hIgG1 (antibody, V domains shown)
VH: EVQLLESGGGLVQPGGSLRLSCAASGFTFSQYPMWWVRQAPGKGLEWVSYIVPSGGRTYYADSVKGRFTISRDNSKNTLYLQMNSLRAEDTAVYYCAKDRAYGDYVGWNGFDYWGQGTLVTVSS
VL: DIQMTQSPATLSLSPGERATLSCRASQSISSFLAWYQQKPGQAPRLLIYDASYRATGIPARFSGSGSGTDFTLTISSLEPEDYAVYYCQQRGNWPITFGQGTRLEIK
- binding of huTIMP-1/cat-huMMP-9 (h-MMP-9/h-TIMP-1 complex; Direct capture): No
- binding of huTIMP-1/cat-huMMP-9 (h-MMP-9/h-TIMP-1 complex; Fc capture): no binding was observed
- binding of huTIMP-1/cat-huMMP-9 (h-MMP-9/h-TIMP-1 complex; Fc capture, listed as 539A-M0237D02): No
- kobs ([1]; M0237-D02 concentration 14.4 nM): 0.0013 s⁻¹
- kobs ([1]; M0237-D02 concentration 19.2 nM): 0.0019 s⁻¹
- kobs ([1]; M0237-D02 concentration 28.8 nM): 0.0024 s⁻¹
- kobs ([1]; M0237-D02 concentration 115.2 nM): 0.0086 s⁻¹
- koff [1, 3]: ~4 10^−4 s^−1
- kon [1, 3]: ~7 10^4 M^−1 s^−1
- inhibition of gelatinolytic activity (Colo205 tumor sections): complete inhibition
- inhibition of gelatinolytic activity (MCF-7 tumor sections): complete inhibition
- lymphocyte infiltration [2]: significantly decreased
- neutrophil infiltration [2]: significantly decreased
- total white blood cell infiltration [2]: significantly decreased

Reference: patent US20110135573A1, “METALLOPROTEINASE 9 AND METALLOPROTEINASE 2 BINDING PROTEINS” (DYAX CORP., priority 2009, published 2011)
